Patent US20020045741A1

Biological target: CHO derived N' FLAG-mNR6 (murine NR6 with an N-terminal FLAG sequence) (mouse) (UniProt Q9JM58)
Experiment: BiaCore biosensor, M2 on the sensorchip; concentrated CHO conditioned medium after M2 affinity column

Sequence of UniProt Q9JM58 (Q9JM58 other isoform, or with tags, fused parts or gaps limits assumed): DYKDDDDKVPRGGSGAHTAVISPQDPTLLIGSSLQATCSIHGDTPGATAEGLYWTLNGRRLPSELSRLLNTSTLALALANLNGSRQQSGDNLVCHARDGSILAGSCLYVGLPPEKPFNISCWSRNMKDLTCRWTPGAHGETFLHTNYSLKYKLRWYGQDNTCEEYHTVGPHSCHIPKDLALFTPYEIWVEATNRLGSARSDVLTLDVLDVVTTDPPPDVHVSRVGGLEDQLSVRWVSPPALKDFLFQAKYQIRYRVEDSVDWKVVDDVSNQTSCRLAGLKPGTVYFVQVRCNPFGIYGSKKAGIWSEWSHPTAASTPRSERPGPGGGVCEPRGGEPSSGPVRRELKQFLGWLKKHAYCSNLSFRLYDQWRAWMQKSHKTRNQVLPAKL

M2 binding remaining in the unbound fraction after M2 affinity resin: 20%
Substance: anti FLAG peptide M2 antibody (Kodak Eastman, USA)
